Results taken from patent publication US20240279345A1, “ALPHA 5 BETA 1 INTEGRIN BINDING AGENTS AND USES THEREOF” (PASITHEA THERAPEUTICS CORP., priority 2021, published 2024).

Tests used:
[1] = target: T1, purified recombinant human α5β1 integrin heterodimer, 6×His tagged (rh-α5β1); Acro Biosystems, cat. no. … (human, UniProt P08648 42-995; P05556 21-728); experiment: BLI (Octet), supernatant mAb on anti-mouse IgG Fc sensor, 20 nM rh-α5β1
T1 construct: bought recombinant heterodimer; also called rh-α5β1-6×His tagged protein; His-tagged-α5β1
Excerpt: Anti-Mouse IgG Fc biosensors were used to load each clone supernatant. Assay steps were as follows: Sensor Check (30s)-->Load Ab (700s)-->Quench (480s)-->Baseline(480s)-->Ab Assoc. (600s)-->Dissoc. (600s).

[2] = target: T2, α5β1 integrin on cells (PMA-activated K562 cells; U87MG cells) (human, UniProt P08648 42-1049; P05556 21-798); experiment: flow cytometry on PMA-activated K562 cells, hybridoma supernatant
T2 construct: Endogenous integrin of human cell lines; also called cellular α5β1 integrin; cell surface α5β1 integrin receptors
Procedure: Four weeks later cells from spleens and draining lymph nodes were fused to create hybridomas. […] In short, hybridoma supernatants were incubated with the activated K562 cells for 20 minutes, washed, then incubated with a fluorescent conjugated detecting antibody for 20 minutes, washed, resuspended in 7-Aminoactinomycin D, and Mean Fluorescence Intensity (MFI) measured on a Guava cytometer (Luminex Corporation, Austin, TX 78727).

T2 sequence (P08648 42-1049 limits assumed, chain 1 of 2): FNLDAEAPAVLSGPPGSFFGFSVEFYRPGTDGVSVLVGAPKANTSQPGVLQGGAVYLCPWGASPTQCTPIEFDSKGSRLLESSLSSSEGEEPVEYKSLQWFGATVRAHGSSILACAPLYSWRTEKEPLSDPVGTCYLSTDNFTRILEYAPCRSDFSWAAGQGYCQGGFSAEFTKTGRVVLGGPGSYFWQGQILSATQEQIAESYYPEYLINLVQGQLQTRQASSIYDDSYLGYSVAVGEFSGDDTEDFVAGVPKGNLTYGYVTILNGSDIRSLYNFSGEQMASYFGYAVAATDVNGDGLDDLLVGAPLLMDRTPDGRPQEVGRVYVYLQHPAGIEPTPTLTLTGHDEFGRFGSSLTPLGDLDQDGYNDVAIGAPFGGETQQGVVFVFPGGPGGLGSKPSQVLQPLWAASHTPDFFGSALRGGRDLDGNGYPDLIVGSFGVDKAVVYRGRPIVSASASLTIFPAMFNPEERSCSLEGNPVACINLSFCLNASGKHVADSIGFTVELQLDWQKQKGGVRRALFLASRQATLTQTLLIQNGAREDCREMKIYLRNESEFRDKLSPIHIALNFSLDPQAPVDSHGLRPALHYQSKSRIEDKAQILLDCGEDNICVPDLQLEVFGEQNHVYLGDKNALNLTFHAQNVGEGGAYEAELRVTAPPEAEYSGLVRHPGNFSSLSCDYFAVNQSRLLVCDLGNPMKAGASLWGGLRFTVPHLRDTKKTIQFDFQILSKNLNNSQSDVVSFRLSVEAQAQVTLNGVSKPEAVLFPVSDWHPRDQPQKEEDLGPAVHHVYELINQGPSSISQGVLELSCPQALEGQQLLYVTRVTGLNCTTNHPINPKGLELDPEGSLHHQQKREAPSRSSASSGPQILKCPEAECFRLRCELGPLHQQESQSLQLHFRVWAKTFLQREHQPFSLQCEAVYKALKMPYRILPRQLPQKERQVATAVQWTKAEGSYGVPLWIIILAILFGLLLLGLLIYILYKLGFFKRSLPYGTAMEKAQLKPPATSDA
T2 sequence (P05556 21-798 limits assumed, chain 2 of 2): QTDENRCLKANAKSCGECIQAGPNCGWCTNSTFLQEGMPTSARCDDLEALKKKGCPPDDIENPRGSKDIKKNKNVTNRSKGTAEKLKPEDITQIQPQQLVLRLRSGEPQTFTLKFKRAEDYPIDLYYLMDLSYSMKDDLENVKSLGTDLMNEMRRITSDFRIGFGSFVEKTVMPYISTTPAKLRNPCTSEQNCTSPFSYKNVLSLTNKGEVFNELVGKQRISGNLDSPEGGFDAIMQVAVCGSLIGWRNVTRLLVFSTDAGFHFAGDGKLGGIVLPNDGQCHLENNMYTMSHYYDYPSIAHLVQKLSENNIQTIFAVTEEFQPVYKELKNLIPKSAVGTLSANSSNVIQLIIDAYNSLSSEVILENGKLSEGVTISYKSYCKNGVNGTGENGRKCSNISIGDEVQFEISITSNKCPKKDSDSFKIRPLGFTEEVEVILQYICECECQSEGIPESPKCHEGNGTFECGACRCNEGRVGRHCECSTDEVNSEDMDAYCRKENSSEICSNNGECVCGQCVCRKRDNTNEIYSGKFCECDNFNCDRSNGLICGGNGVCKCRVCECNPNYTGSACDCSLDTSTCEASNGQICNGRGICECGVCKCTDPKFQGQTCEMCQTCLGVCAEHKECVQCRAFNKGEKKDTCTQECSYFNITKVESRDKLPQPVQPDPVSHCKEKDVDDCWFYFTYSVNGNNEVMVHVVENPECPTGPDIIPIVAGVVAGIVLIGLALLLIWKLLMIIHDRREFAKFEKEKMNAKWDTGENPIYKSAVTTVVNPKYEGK
T1 sequence (P08648 42-995 limits assumed, form in doubt, chain 1 of 2): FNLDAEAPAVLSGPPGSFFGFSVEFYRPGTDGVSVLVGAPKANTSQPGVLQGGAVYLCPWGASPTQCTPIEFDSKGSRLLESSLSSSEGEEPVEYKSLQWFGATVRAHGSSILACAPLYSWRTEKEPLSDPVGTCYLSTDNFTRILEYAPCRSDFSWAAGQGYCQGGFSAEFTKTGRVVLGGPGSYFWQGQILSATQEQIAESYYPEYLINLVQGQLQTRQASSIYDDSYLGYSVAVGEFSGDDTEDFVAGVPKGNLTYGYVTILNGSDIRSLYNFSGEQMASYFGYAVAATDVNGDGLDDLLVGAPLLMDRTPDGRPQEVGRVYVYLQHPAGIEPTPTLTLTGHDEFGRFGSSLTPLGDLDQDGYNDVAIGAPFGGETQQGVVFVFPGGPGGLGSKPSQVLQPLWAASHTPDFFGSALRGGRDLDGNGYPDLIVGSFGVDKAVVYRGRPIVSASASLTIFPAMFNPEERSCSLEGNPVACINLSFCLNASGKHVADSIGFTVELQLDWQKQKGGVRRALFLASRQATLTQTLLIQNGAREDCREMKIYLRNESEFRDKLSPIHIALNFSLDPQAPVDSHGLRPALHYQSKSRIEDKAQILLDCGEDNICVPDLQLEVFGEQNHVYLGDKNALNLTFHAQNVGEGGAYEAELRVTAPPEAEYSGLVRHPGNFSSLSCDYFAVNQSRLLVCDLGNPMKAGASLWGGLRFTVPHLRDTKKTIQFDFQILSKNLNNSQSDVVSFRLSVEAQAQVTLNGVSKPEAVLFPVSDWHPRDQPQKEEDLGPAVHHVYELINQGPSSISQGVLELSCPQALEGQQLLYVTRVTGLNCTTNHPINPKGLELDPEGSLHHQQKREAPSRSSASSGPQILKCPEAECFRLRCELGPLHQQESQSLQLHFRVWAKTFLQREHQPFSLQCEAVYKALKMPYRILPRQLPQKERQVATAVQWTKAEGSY
T1 sequence (P05556 21-728 limits assumed, form in doubt, chain 2 of 2): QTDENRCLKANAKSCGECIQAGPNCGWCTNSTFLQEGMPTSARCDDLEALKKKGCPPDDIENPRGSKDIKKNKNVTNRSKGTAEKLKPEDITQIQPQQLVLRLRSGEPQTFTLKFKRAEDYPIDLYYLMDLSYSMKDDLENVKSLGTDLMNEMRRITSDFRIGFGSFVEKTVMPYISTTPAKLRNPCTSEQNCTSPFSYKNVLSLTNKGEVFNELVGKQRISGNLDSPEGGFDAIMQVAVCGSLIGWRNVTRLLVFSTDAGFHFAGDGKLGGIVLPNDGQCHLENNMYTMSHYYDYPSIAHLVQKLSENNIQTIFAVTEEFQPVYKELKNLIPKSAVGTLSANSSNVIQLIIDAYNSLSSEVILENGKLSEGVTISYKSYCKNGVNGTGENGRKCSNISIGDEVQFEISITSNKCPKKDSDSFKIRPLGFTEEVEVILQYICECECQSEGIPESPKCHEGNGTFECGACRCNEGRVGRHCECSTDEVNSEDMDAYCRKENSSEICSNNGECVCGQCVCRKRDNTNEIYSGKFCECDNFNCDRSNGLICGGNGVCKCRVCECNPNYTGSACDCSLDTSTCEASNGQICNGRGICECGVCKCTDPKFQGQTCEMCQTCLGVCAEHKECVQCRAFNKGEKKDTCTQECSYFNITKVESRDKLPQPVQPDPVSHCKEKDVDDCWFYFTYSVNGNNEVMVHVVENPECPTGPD

Row | Binder | Kd [1] | koff [1] | kon [1] | MFI [2]
1 | A-14G08 (antibody, V domains shown, mouse hybridoma) VH: QVQLQQPGAELVKPGASVKLSCKASGYTFTIYWINWVKQRPGQGLEWIGKIYPGSISTDYNEKFKSKATLTVDTSSSTAYMQLSSLTSDDSAVYYCAITGTGGLAYWGQGTLVTVSA VL: ENVLTQSPAIMSASLGEKVTMTCRASSSVNYMYWYQQKSDASPKLWIYFTSSLAPGVPGRFSGSGSGNSYSLTISTMEGEDAATYYCQQFTTSPFTFGSGTKLEIK | – | – | – | 4210
2 | A2-7A05 (antibody, V domains shown, mouse hybridoma antibody (supernatant, or purified by Protein A); also called antibody designated A2-7A05; A-7A05) VH: QVQLQQPGAELVKPGASVKLSCKASGYTFTIYWINWVKQRPGQGLEWIGKIYPGSISTDYNEKFKSKATLTVDTSSSTAYMQLSSLTSDDSAVYYCAITGTGGLAYWGQGTLVTVSA VL: ENVLTQSPAIMSASLGEKVTMTCRASSSVNYMYWYQQKSDASPKLWIYFTSSLAPGVPGRFSGSGSGNSYSLTISTMEGEDAATYYCQQFTTSPFTFGSGTKLEIK | – | – | – | 5500
3 | A2-7F01 (antibody, V domains shown, mouse hybridoma antibody (supernatant, or purified by Protein A); also called antibody designated A2-7F01) VH: QVQLQQPGAELVKPGASVKLSCKASGYTFTIYWINWVKQRPGQGLEWIGNIYPGSSSTNYNEKFKTKATLTVDTSSSTAYMQLSSLTSDDSAVYYCAITGTGGFAYWGQGTLVTVSA VL: ENVLTQSPAIMSASLGEKVTMSCRASSSVNYMYWYQQKSDASPKLWIYFTSSLAPGVPTRFSGSGSGNSFSLTISSMEGEDAATYYCQQLTGSPFTFGSGTRLEIK | – | – | – | 6260
4 | A-4G02 (antibody, V domains shown, mouse hybridoma antibody) VH: QVQLKESGPGLVAPSQSLSITCTISGFSLTSYGVHWVRQPPGKGLEWLVVIWSDGSTTYNSTLKSRLSISKDNSKSQVFFKMNSLQTDDTAMYYCARHYDYDGDWFAYWGQGTLVTVSA VL: QIVLTQSPAIMSASLGERVTMTCTASSRVSSNSLHWYQQKPGSSPKLWIYSTSNLASGVPARFSGSGSGTSYSLTISSMEAEDAATYYCHQYLRSPPTFGGGTKLEIK | 1.23 nM | 0.000396 s⁻¹ | 321000 M⁻¹ s⁻¹ | –
5 | A-3A08 (antibody, V domains shown, mouse hybridoma antibody) VH: QVQLKESGPGLVAPSQSLSITCTISGFSLTTYGVHWVRQPPGKGLEWLVVIWSDGSTTYNSALKSRLNITKDNSKSQVFLKMNSLQTDDTAMYYCVRHGGLLRRDAMDYWGQGTSVTVSS VL: QIVLTQSPAIMSASLGERVTMTCTASSSVSSNSFHWYQQKPGSSPKLWLYSTSNLASGVPARFSGSGSGTSYSLTISSMEAEDAATYYCHQYLRSPPTFGGGTKLEIK | 5.08 nM | 0.00124 s⁻¹ | 244000 M⁻¹ s⁻¹ | –
6 | A-15B08 (antibody, V domains shown, mouse hybridoma antibody (supernatant, or purified by Protein A); NST N-glycosylation site in CDRH2; also called antibody designated A-15B08) VH: QVQLKESGPGLVAPSQSLSITCTISGFSLTSYGVHWVRQPPGKGLEWLVVIWSDGSTTYNSTLKSRLSISKDNSKSQVFFKMNSLQTDDTAMYYCARHYDYDGDWFAYWGQGTLVTVSA VL: QIVLTQSPAIMSASLGERVTMTCTASSRVSSNSLHWYQQKPGSSPKLWIYSTSNLASGVPARFSGSGSGTSYSLTISSMEAEDAATYYCHQYLRSPPTFGGGTKLEIK | – | – | – | 1390
7 | A2-8H11 (antibody, V domains shown, mouse hybridoma) VH: QVQLKESGPGLVAPSQSLSITCTISGFSLTTYGVHWVRQPPGKGLEWLVVIWSDGSTTYNSALKSRLNITKDNSKSQVFLKMNSLQTDDTAMYYCVRHGGLLRRDAMDYWGQGTSVTVSS VL: QIVLTQSPAIMSASLGERVTMTCTASSSVSSNSFHWYQQKPGSSPKLWLYSTSNLASGVPARFSGSGSGTSYSLTISSMEAEDAATYYCHQYLRSPPTFGGGTKLEIK | – | – | – | 4370
8 | A2-9A11 (antibody, V domains shown, mouse hybridoma) VH: QVQLKESGPGLVAPSQSLSITCTISGFSLTTYGVHWVRQPPGKGLEWLVVIWSDGSTTYNSALKSRLNITKDNSKSQVFLKMNSLQTDDTAMYYCVRHGGLLRRDAMDYWGQGTSVTVSS VL: QIVLTQSPAIMSASLGERVTMTCTASSSVSSNSFHWYQQKPGSSPKLWLYSTSNLASGVPARFSGSGSGTSYSLTISSMEAEDAATYYCHQYLRSPPTFGGGTKLEIK | – | – | – | 3400
9 | A2-6C10 (antibody, V domains shown, mouse hybridoma) VH: QVQLKESGPGLVAPSQSLSITCTISGFSLTTYGVHWVRQPPGKGLEWLVVIWSDGSTTYNSALKSRLNITKDNSKSQVFLKMNSLQTDDTAMYYCVRHGGLLRRDAMDYWGQGTSVTVSS VL: QIVLTQSPAIMSASLGERVTMTCTASSSVSSNSFHWYQQKPGSSPKLWLYSTSNLASGVPARFSGSGSGTSYSLTISSMEAEDAATYYCHQYLRSPPTFGGGTKLEIK | – | – | – | 2120
10 | A2-3B06 (antibody, V domains shown, mouse hybridoma antibody (supernatant, or purified by Protein A); also called antibody designated A2-3B06) VH: QVQLKESGPGLVAPSQSLSITCTISGFSLTTYGVHWVRQPPGKGLEWLVVIWSDGSTTYNSALKSRLNITKDNSKSQVFLKMNSLQTDDTAMYYCVRHGGLLRRDAMDYWGQGTSVTVSS VL: QIVLTQSPAIMSASLGERVTMTCTASSSVSSNSFHWYQQKPGSSPKLWLYSTSNLASGVPARFSGSGSGTSYSLTISSMEAEDAATYYCHQYLRSPPTFGGGTKLEIK | – | – | – | 2140
11 | A2-5D10 (antibody, V domains shown, mouse hybridoma antibody (supernatant, or purified by Protein A); also called antibody designated A2-5D10) VH: QVQLKESGPGLVAPSQSLSITCTISGFSLTSYGVHWVRQPPGKGLEWLVVIWSDGSTTYNSTLKSRLSISKDNSKSQVFLKMNSLQTDDTAMYYCARHYDYDGDWFAYWGQGTLVTVSA VL: QILLTQSPAIMSASLGERVTMTCTASSSVSSRCLHWYQQKPGSSPKLWIYSTSNLASGVPARFRGSGSGTSYSLTISSMEAEDAATYYCHQYYRSPPTFGGGTKLEIK | – | – | – | 1890

The remaining lines, values ahead:

Row | Kd [1] | koff [1] | kon [1] | MFI [2] | Binder
12 | 0.845 nM | 0.000198 s⁻¹ | 234000 M⁻¹ s⁻¹ | – | A-14G08 (antibody, V domains shown, mouse hybridoma antibody) VH: QVQLQQPGAELVKPGASVKLSCKASGYTFTIYWINWVKQRPGQGLEWIGKIYPGSISTDYNEKFKSKATLTVDTSSSTAYMQLSSLTSDDSAVYYCAITGTGGLAYWGQGTLVTVSA VL: ENVLTQSPAIMSASLGEKVTMTCRASSSVNYMYWYQQKSDASPKLWIYFTSSLAPGVPGRFSGSGSGNSYSLTISTMEGEDAATYYCQQFTTSPFTFGSGTKLEIK
13 | 0.901 nM | 0.000193 s⁻¹ | 215000 M⁻¹ s⁻¹ | – | A-15H11 (antibody, V domains shown, mouse hybridoma antibody) VH: QVQLQQPGAELVKPGASVKLSCKASGYTFTIYWINWVKQRPGQGLEWIGKIYPGSISTDYNEKFKSKATLTVDTSSSTAYMQLSSLTSDDSAVYYCAITGTGGLAYWGQGTLVTVSA VL: ENVLTQSPAIMSASLGEKVTMTCRASSSVNYMYWYQQKSDASPKLWIYFTSSLAPGVPGRFSGSGSGNSYSLTISTMEGEDAATYYCQQFTTSPFTFGSGTKLEIK
14 | 4.75 nM | 0.00128 s⁻¹ | 270000 M⁻¹ s⁻¹ | – | A-7D06 (antibody, V domains shown, mouse hybridoma antibody) VH: QVQLKESGPGLVAPSQSLSITCTISGFSLTTYGVHWVRQPPGKGLEWLVVIWSDGSTTYNSALKSRLNITKDNSKSQVFLKMNSLQTDDTAMYYCVRHGGLLRRDAMDYWGQGTSVTVSS VL: QIVLTQSPAIMSASLGERVTMTCTASSSVSSNSFHWYQQKPGSSPKLWLYSTSNLASGVPARFSGSGSGTSYSLTISSMEAEDAATYYCHQYLRSPPTFGGGTKLEIK
15 | 5.03 nM | 0.00132 s⁻¹ | 261000 M⁻¹ s⁻¹ | – | A-11G01 (antibody, V domains shown, mouse hybridoma antibody) VH: QVQLKESGPGLVAPSQSLSITCTISGFSLTTYGVHWVRQPPGKGLEWLVVIWSDGSTTYNSALKSRLNITKDNSKSQVFLKMNSLQTDDTAMYYCVRHGGLLRRDAMDYWGQGTSVTVSS VL: QIVLTQSPAIMSASLGERVTMTCTASSSVSSNSFHWYQQKPGSSPKLWLYSTSNLASGVPARFSGSGSGTSYSLTISSMEAEDAATYYCHQYLRSPPTFGGGTKLEIK
16 | – | – | – | 2020 | C-14D12 (antibody, V domains shown, mouse hybridoma antibody (supernatant, or purified by Protein A); also called antibody designated C-14D12; C-14D2) VH: QVQLKESGPDLVAPSQSLSITCTVSGFSLTDYGVHWVRQPPGKGLEWLVVIWSDGSTTYNSALKSRLSITKDTSKRQVFLKMNSLQTDDTAMYYCARHAPSFIRYGSRYDALDYWGQGTSVTVSS VL: QIVLTQSPAIMSASLGERVTLTCTASSSVTSSFLHWYQQKPGSSPKLWIYSTSNLASGVPARFSGSGSGTSYSLTISSMEAEDAATYYCHQYHRSPPTFGGGTKLEIK
17 | – | – | – | 1980 | A-4G02 (antibody, V domains shown, mouse hybridoma) VH: QVQLKESGPGLVAPSQSLSITCTISGFSLTSYGVHWVRQPPGKGLEWLVVIWSDGSTTYNSTLKSRLSISKDNSKSQVFFKMNSLQTDDTAMYYCARHYDYDGDWFAYWGQGTLVTVSA VL: QIVLTQSPAIMSASLGERVTMTCTASSRVSSNSLHWYQQKPGSSPKLWIYSTSNLASGVPARFSGSGSGTSYSLTISSMEAEDAATYYCHQYLRSPPTFGGGTKLEIK
18 | 0.442 nM | 0.00012 s⁻¹ | 271000 M⁻¹ s⁻¹ | – | C-8G11 (antibody, V domains shown, mouse hybridoma antibody) VH: QVQLKESGPDLVAPSQSLSITCTVSGFSLTDYGVHWVRQPPGKGLEWLVVIWSDGSTTYNSALKSRLSITKDTSKRQVFLKMNSLQTDDTAMYYCARHAPSFIRYGSRYDALDYWGQGTSVTVSS VL: QIVLTQSPAIMSASLGERVTLTCTASSSVTSSFLHWYQQKPGSSPKLWIYSTSNLASGVPARFSGSGSGTSYSLTISSMEAEDAATYYCHQYHRSPPTFGGGTKLEIK
19 | – | – | – | 2690 | C-8G11 (antibody, V domains shown, mouse hybridoma) VH: QVQLKESGPDLVAPSQSLSITCTVSGFSLTDYGVHWVRQPPGKGLEWLVVIWSDGSTTYNSALKSRLSITKDTSKRQVFLKMNSLQTDDTAMYYCARHAPSFIRYGSRYDALDYWGQGTSVTVSS VL: QIVLTQSPAIMSASLGERVTLTCTASSSVTSSFLHWYQQKPGSSPKLWIYSTSNLASGVPARFSGSGSGTSYSLTISSMEAEDAATYYCHQYHRSPPTFGGGTKLEIK
